Data on four molecules can be found in PMC9769622, “ATPase Activity of Bacillus subtilis RecA Affects the Dynamic Formation of RecA Filaments at DNA Double Strand Breaks” (mSphere, 2022).

One may read the stoichiometry N as a count of units in the complex or per binding partner.

Assay [1] has as its target Bacillus subtilis RecA K70A Walker A mutant, hexa-histidine fusion protein (B. subtilis) (UniProt P16971). The assay can be described thus: mass photometry; protein alone; 2 uL sample added to 18 uL PBS pH 7.4, room temperature; 137 mM salt; poly-L-lysine coated coverslips.
The target of assay [2] is Bacillus subtilis RecA, wild type, hexa-histidine fusion protein (B. subtilis) (UniProt P16971). The assay is described as above.
In assay [3] the target is Bacillus subtilis RecA K70R Walker A mutant, hexa-histidine fusion protein (B. subtilis) (UniProt P16971). The assay can be described thus: mass photometry; protein mixed with 32 nt ssDNA oligonucleotides and 1 mmol/l ATP, incubated 10 min at 37°C; measured in PBS pH 7.4.
The target is the same in assay [4]. The assay can be described thus: mass photometry; protein alone; 2 uL sample added to 18 uL PBS pH 7.4, room temperature; 137 mM salt; poly-L-lysine coated coverslips.
A further assay has as its target T1, RecA (RecAWT) (Bacillus subtilis, UniProt P16971).
T1 construct: 6xHis tag kept (text says C-terminal, also written 6xHis-RecA); pET28a, E. coli BL21(DE3); about 38 kDa monomer
T1 sequence (P16971 11-348): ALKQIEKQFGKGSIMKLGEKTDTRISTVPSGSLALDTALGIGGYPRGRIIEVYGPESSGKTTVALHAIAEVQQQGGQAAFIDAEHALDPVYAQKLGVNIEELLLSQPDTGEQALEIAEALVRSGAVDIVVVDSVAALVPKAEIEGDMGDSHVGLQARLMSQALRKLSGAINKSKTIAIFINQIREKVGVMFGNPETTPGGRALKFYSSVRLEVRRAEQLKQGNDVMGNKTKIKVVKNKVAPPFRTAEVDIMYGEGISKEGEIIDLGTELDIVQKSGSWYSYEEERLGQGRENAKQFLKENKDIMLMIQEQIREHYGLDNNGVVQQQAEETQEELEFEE
The assay can be described thus: malachite green phosphate release; kinetic analysis of ATP binding. In kind it is biochemical. The conditions noted are these: with salmon sperm ssDNA, Mg2+, pH 7.4, 37 C.

Consider “Bacillus subtilis RecA K70A Walker A mutant, hexa-histidine fusion protein (from UniProt P16971 11-348) (natural protein)”, for which, in assay [1], the stoichiometry N was 2.
In the case of “Bacillus subtilis RecA, wild type, hexa-histidine fusion protein (from UniProt P16971 11-348) (natural protein)”, the stoichiometry N in assay [2] amounted to 2.
Take “Bacillus subtilis RecA K70R Walker A mutant, hexa-histidine fusion protein (from UniProt P16971 11-348) (natural protein)”: the stoichiometry N in assay [3] and in assay [4] was 2 in each case.
In the case of `Nc1ncnc2c1ncn2[C@@H]1O[C@H](COP(=O)(O)OP(=O)(O)OP(=O)(O)O)[C@@H](O)[C@H]1O` [ATP], on RecA (RecAWT), the “malachite green phosphate release; kinetic analysis of ATP binding” value was “activity of wild type RecA comparable to that of E. coli RecA”.
